The values below come from patent US20260184748A1 (University of Pennsylvania, published 2026).

What all share (experiment): cell-based or functional assay
The target in assay [1] is KISS1R (UniProt Q969F8 1-398).
In assay [2] the target is T1, CRHR2 (UniProt Q13324 1-411, limits assumed).
T1 sequence (looked up): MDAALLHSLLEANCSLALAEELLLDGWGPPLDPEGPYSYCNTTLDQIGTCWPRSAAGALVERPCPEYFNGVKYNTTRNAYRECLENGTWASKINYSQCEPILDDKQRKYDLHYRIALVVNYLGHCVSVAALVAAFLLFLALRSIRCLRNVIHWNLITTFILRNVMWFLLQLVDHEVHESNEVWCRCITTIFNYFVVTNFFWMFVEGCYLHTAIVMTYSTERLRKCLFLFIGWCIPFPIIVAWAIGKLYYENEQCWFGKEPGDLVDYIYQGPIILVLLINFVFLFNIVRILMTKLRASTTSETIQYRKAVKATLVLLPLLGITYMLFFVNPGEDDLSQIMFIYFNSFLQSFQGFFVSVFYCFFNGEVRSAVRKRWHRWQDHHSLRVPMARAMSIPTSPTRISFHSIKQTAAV

The target in assay [3] is PROKR2 (UniProt Q8NFJ6 1-384).
PROKR2, sequence (Q8NFJ6 whole entry): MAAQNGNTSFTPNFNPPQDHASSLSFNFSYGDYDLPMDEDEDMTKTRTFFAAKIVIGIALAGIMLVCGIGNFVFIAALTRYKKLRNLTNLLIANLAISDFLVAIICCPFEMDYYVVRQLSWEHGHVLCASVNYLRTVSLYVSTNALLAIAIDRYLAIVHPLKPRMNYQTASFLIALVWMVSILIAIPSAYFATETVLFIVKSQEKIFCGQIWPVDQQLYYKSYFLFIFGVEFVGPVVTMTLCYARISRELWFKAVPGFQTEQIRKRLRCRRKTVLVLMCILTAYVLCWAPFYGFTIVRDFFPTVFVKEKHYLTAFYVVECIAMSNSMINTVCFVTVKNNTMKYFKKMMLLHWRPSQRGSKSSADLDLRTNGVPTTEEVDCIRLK
The target of assay [4] is MC4R (UniProt P32245 1-332).
MC4R, sequence (P32245 whole entry): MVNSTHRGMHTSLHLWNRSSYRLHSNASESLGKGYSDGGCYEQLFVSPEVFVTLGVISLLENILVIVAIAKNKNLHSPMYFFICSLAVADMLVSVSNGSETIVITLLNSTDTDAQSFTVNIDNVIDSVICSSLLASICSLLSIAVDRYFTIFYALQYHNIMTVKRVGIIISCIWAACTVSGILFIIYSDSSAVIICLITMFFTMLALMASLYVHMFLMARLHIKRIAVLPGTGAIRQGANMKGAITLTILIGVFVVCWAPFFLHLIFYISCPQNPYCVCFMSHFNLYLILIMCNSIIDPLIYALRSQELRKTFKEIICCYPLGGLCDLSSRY
In assay [5] the target is P2RY2 (UniProt P41231 1-377).
P2RY2, sequence (P41231 whole entry): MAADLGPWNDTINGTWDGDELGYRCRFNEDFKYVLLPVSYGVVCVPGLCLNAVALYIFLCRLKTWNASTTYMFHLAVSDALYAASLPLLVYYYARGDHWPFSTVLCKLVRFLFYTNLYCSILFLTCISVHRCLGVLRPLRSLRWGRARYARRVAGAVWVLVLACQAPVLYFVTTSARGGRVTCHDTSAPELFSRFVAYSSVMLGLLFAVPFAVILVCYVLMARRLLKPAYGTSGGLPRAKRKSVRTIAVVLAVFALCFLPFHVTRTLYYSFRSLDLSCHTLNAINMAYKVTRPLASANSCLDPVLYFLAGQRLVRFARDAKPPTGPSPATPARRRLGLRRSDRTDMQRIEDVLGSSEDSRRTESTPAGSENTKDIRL
Assay [6] addresses T2, CRHR1 (UniProt P34998 24-415, limits assumed).
T2 sequence (looked up): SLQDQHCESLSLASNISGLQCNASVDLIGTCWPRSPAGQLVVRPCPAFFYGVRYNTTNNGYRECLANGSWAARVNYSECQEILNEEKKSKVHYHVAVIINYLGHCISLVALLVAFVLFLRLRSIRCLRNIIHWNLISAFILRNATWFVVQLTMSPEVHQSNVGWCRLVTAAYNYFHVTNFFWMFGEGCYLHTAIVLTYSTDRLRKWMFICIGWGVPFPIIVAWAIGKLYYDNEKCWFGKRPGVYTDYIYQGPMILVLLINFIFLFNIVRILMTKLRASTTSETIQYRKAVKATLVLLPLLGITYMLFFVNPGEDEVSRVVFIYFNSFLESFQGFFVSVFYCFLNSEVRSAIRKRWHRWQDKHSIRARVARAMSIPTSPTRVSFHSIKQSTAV

Assay [7] has as its target T3, VIPR2 (UniProt P41587 24-438).
T3 sequence (looked up): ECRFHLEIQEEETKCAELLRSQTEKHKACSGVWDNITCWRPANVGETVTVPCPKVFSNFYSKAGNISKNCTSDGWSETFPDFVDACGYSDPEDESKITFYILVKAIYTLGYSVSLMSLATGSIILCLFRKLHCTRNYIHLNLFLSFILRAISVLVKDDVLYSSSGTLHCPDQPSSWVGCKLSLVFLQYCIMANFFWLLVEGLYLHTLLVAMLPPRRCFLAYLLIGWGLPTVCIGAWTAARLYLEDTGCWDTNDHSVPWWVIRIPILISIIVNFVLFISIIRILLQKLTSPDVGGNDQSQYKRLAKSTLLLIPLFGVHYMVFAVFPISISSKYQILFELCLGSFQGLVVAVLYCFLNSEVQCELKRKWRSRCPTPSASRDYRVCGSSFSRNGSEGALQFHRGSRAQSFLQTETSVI

In assay [8] the target is CALCRL-RAMP3 (UniProt Q16602 23-461; O60896 24-148).
CALCRL-RAMP3, sequence (Q16602 23-461 limits assumed, chain 1 of 2): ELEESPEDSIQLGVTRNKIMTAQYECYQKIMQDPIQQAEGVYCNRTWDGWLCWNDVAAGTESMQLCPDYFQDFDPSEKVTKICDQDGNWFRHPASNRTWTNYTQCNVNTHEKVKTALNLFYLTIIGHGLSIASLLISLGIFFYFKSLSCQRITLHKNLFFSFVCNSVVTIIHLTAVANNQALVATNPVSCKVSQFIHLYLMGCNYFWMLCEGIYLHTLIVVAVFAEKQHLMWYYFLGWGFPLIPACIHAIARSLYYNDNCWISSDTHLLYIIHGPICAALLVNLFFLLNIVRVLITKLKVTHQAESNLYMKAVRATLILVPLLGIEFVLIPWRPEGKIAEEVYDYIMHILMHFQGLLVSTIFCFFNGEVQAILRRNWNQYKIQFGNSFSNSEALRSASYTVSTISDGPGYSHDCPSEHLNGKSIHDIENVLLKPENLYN
CALCRL-RAMP3, sequence (O60896 24-148 limits assumed, chain 2 of 2): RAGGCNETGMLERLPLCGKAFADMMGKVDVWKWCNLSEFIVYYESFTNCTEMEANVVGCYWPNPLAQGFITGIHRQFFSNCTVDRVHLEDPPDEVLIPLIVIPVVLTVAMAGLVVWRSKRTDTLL
In assay [9] the target is T4, ADRA2C (UniProt P18825 1-462).
T4 sequence (looked up): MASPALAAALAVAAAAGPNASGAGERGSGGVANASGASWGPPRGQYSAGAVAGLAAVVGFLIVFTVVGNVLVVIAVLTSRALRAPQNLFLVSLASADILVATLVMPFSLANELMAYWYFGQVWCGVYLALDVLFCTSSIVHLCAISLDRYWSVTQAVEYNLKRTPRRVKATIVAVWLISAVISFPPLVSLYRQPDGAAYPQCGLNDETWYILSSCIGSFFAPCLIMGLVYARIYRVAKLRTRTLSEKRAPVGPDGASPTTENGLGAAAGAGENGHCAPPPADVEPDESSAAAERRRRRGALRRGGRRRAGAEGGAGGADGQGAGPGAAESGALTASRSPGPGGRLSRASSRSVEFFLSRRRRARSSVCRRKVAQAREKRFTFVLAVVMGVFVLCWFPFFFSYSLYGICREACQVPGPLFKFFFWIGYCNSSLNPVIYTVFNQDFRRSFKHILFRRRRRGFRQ

Assay [10] deals with CNR2 (UniProt P34972 1-360).
CNR2, sequence (P34972 whole entry): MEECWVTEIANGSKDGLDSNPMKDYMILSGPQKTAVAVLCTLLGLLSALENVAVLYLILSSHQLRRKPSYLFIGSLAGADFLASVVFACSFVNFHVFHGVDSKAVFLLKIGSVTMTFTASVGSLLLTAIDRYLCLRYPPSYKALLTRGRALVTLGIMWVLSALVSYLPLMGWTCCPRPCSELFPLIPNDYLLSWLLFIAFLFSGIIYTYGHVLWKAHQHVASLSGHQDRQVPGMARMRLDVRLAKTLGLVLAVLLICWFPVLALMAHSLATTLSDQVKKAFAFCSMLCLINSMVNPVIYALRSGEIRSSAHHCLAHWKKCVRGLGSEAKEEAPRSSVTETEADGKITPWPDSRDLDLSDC
Assay [11] has as its target ADRB2 (UniProt P07550 1-413).
The target in assay [12] is T5, ADORA3 (UniProt P0DMS8 1-318).
T5 sequence (looked up): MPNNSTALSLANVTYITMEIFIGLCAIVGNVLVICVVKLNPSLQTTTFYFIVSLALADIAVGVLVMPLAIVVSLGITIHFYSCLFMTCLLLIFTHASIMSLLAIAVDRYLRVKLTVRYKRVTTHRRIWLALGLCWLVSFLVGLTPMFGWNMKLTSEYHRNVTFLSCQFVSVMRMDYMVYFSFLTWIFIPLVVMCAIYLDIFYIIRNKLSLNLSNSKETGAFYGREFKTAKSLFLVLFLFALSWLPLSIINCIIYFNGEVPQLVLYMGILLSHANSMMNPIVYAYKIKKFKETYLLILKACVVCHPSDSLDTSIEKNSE

The target in assay [13] is T6, CCKAR (UniProt P32238 1-428).
T6 sequence (looked up): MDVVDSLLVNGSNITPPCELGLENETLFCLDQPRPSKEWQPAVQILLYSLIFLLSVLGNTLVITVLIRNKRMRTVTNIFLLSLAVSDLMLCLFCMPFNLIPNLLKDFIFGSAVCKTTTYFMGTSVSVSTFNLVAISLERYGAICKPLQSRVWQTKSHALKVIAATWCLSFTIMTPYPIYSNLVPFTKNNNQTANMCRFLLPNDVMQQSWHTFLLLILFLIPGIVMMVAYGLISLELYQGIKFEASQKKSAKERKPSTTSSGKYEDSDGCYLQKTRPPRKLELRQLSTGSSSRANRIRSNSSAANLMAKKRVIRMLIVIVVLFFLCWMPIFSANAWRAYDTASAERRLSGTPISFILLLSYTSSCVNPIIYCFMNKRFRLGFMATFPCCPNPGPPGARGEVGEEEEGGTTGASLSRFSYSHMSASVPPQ

Where no end group is shown, it is not given here.

KISS1R, sequence (Q969F8 whole entry): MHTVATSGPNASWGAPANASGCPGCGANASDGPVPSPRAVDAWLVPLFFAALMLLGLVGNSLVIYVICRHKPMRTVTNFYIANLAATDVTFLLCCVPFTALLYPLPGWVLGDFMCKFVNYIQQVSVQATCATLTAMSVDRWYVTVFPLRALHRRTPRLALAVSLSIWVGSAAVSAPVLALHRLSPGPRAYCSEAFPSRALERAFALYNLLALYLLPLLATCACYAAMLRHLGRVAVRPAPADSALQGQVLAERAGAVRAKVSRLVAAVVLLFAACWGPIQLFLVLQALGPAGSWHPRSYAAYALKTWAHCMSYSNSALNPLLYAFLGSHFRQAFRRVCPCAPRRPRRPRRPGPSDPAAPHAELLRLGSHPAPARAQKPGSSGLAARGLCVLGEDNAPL

As for QATVGDVNTDRPGLLDLK (also: synthesised on Rink amide resin, C-terminal amide not given here outright) [octadecaneuropeptide (ODN)], the “% Activity, arrestin, antagonist mode, 2.5 uM” value (“% Activity, arrestin” below) in assay [1] was 13.2%; in [2], -8.6%; in assay [3] it was -17.5%; in assay [4], -4.6%; in [5], -5.2%; in assay [6], 5.4%. For the same molecule, the “% Activity, arrestin” value in [7] is -6.7%; in [8] it was -3.5%; in [9], -26.4%; in assay [10], 3.6%; in assay [11], -11.7%; in assay [12] it was 0.5%. Further, the “% Activity, arrestin” value in assay [13] is -17.2%.
